Laboratory results from publication PMC3112360.

Experiments:
[1] = target: homocysteinylated FN40K fragment (human) (UniProt P02751); assay: ELISA
[2] = target: homocysteinylated fibronectin (human (endogenous in primary human dermal fibroblasts)) (UniProt P02751); assay: ELISA
Sequence of homocysteinylated fibronectin (human (endogenous in primary human dermal fibroblasts)) (P02751 32-2477): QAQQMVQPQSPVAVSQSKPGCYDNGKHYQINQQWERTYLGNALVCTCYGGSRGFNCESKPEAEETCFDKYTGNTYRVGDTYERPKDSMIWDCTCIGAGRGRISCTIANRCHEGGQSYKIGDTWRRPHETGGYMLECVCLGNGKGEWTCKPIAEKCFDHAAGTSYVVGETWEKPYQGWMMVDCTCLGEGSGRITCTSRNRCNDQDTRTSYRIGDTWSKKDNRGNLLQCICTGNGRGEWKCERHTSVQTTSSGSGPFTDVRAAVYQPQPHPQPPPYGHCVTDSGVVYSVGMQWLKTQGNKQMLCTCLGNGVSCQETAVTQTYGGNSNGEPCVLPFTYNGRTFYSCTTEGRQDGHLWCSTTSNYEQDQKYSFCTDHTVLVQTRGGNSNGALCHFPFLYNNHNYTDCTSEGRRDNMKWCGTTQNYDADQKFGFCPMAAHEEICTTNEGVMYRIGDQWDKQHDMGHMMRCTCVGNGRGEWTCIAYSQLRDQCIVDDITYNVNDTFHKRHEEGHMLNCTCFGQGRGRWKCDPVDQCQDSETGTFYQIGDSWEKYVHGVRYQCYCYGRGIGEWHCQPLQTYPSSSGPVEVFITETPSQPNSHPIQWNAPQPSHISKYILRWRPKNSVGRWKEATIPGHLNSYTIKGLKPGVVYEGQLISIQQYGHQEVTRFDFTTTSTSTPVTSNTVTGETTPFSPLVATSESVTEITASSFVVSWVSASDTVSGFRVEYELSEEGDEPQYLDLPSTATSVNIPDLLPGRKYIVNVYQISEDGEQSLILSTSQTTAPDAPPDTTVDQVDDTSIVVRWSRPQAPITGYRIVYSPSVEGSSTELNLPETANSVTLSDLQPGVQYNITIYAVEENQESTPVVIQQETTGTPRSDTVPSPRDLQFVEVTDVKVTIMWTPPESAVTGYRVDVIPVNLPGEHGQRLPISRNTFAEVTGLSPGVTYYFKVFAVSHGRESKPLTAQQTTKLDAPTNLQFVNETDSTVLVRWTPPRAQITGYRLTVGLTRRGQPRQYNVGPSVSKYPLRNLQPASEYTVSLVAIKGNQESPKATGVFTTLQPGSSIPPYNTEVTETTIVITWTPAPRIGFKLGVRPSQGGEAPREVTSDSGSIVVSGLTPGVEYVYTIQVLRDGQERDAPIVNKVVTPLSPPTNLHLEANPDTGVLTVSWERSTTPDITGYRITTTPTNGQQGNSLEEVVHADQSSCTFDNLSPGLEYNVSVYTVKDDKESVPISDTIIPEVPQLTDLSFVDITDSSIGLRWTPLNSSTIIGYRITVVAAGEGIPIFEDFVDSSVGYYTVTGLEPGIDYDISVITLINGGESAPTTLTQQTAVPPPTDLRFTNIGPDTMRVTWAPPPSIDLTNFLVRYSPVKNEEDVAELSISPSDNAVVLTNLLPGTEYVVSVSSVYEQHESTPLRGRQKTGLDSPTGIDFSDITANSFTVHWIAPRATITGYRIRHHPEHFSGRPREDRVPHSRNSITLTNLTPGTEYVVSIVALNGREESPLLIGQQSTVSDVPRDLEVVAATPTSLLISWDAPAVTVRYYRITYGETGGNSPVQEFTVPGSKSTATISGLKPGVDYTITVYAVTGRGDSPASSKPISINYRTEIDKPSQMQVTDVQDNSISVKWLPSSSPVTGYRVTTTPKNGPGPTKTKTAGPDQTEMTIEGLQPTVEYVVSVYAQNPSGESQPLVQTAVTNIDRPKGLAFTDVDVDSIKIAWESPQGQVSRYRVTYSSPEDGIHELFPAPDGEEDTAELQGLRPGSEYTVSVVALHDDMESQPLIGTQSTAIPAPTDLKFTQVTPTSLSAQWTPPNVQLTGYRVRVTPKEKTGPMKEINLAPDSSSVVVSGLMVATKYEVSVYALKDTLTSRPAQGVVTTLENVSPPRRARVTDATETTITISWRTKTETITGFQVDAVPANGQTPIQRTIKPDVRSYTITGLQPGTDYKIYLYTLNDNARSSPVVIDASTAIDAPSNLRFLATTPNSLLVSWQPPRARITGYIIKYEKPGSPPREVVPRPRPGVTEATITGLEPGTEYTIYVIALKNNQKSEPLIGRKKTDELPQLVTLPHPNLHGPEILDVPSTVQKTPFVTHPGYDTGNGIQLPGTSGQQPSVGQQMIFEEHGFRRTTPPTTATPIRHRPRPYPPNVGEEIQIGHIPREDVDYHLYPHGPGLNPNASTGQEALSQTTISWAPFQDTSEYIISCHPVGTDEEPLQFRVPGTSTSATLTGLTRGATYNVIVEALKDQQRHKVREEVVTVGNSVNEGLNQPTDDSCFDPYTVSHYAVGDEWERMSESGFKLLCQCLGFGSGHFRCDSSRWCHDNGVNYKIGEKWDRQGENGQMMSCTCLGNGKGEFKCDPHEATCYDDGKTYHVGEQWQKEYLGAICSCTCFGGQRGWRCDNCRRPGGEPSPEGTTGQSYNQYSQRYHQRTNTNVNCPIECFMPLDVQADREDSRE

Sequence of homocysteinylated FN40K fragment (human) (P02751 32-2477): as above

Substance: recombinant C-terminal half of fibrillin-1 (rFBN1-C) (from UniProt P35555 45-2731) (domain or fragment)
- relative reduction in binding against the non-modified control [1]: 34.1%
- relative reduction in binding against the non-modified control [2]: 65%
